Test results reported in article PMC8902816, “Plasmodium falciparum GBP2 Is a Telomere-Associated Protein That Binds to G-Quadruplex DNA and RNA”.

Columns and labels:
[1] = biological target: T1, PfGBP2 (Plasmodium falciparum, UniProt Q8IJX3 1-246); assay: EMSA; 50 ng dIdC; EMSA: 1 ug GBP2 (bacterial extract), 50 ng dIdC, 20 fmol biotin probe, 20 min, room temperature, 200-fold competitor, 0.5x TBE 4-12% gel; dot blot/ThT: oligos folded in 100 uM (so in the source) Tris pH 7.8 and 100 uM KCl, or LiCl up to 1 M; conditions: protein: recombinant; tags: 6xHis at N and C termini (pET-28a+); label: 3' biotin (EMSA)
T1 sequence: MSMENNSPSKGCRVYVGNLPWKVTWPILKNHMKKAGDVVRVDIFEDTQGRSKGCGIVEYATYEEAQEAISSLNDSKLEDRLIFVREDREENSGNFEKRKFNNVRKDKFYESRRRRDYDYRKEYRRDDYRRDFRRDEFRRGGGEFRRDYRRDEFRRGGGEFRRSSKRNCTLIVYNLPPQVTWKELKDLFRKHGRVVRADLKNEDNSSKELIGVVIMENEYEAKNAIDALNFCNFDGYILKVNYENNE

[2] = biological target: T1, PfGBP2; assay: EMSA; 50 ng dIdC; not efficiently competed by unlabeled RNA, partially by unlabeled DNA; EMSA: 1 ug GBP2 (bacterial extract), 50 ng dIdC, 20 fmol biotin probe, 20 min, room temperature, 200-fold competitor, 0.5x TBE 4-12% gel; dot blot/ThT: oligos folded in 100 uM (so in the source) Tris pH 7.8 and 100 uM KCl, or LiCl up to 1 M; conditions: protein: recombinant; tags: 6xHis at N and C termini (pET-28a+); label: 3' biotin (EMSA)

Row | Binder | binding result [1] | binding result [2]
1 | GTGTATGCGTTATGTGTATGCGTGTGAGTG (ssDNA) [G-rich 1 scram] | no binding | 
2 | UUCAGGGUUCAGGGUUCAGGGUUCAGGGUUC (ssRNA) [RNA G-rich 2] |  | binds
3 | TTAAAATTTATAATTATAAATTTTAA (ssDNA) [A/T only] | no binding | 
